The values below come from patent US7572450.

Side chains are listed from the residue outwards. Ends that are not written are not given here. maleimide = maleimide-activated rabbit IgG carrier, to which the peptide is conjugated through its cysteine; rabbit IgG = rabbit IgG carrier (maleimide-activated), conjugated to the peptide

For this experiment, the target named is AD7C-NTP neural thread protein (purified recombinant AD7C-NTP). Briefly: cell-based or functional assay.
Regarding C([maleimide-rabbit IgG])ARYRTGHHARLM [Harlil sequence NTP-3], the reduction in tissue necrosis (rat injection sites, histopathology at 24 hours) is greater than 95%. The value for DNTHHARLIL (also: conjugated to maleimide-activated rabbit IgG, mode not given here) [Harlil sequence NTP-7] was greater than 95%; that for LHARLCLANFCGRNRV (also: conjugated through a cysteine to maleimide-activated rabbit IgG) [Harlil sequence NTP-1] was greater than 95%.
